Substrate in data set [1]: CN1CC=C(C2CCCN2C)CC1
The data set is described as follows: Km value for Monoamine oxidase B was determined in baboon liver tissue. Details: species or system Papio hamadryas.

Substrate in data set [2]: CN1CC=C(C2CCCN2C)CC1
The data set is described as follows: Km value for Monoamine oxidase A was determined in human placental tissue.

Our source for the Km values is ChEMBL document CHEMBL1136363, “Rational approaches towards reversible inhibition of type B monoamine oxidase. Design and evaluation of a novel 5H-Indeno[1,2-c]pyridazin-5-one derivative” (Bioorg Med Chem Lett, 2003).

B1: Amine oxidase [flavin-containing] B (Homo sapiens) (protein)
chain: MSNKCDVVVVGGGISGMAAAKLLHDSGLNVVVLEARDRVGGRTYTLRNQKVKYVDLGGSYVGPTQNRILRLAKELGLETYKVNEVERLIHHVKGKSYPFRGPFPPVWNPITYLDHNNFWRTMDDMGREIPSDAPWKAPLAEEWDNMTMKELLDKLCWTESAKQLATLFVNLCVTAETHEVSALWFLWYVKQCGGTTRIISTTNGGQERKFVGGSGQVSERIMDLLGDRVKLERPVIYIDQTRENVLVETLNHEMYEAKYVISAIPPTLGMKIHFNPPLPMMRNQMITRVPLGSVIKCIVYYKEPFWRKKDYCGTMIIDGEEAPVAYTLDDTKPEGNYAAIMGFILAHKARKLARLTKEERLKKLCELYAKVLGSLEALEPVHYEEKNWCEEQYSGGCYTTYFPPGILTQYGRVLRQPVDRIYFAGTETATHWSGYMEGAVEAGERAAREILHAMGKIPEDEIWQSEPESVDVPAQPITTTFLERHLPSVPGLLRLIGLTTIFSATALGFLAHKRGLLVRV
As usually defined, the Km is the substrate concentration at which the rate is half of its maximum. Turning to B1, the Km in data set [1] amounted to 60.9 µM.

B2: Amine oxidase [flavin-containing] A (Homo sapiens) (protein)
chain: MENQEKASIAGHMFDVVVIGGGISGLSAAKLLTEYGVSVLVLEARDRVGGRTYTIRNEHVDYVDVGGAYVGPTQNRILRLSKELGIETYKVNVSERLVQYVKGKTYPFRGAFPPVWNPIAYLDYNNLWRTIDNMGKEIPTDAPWEAQHADKWDKMTMKELIDKICWTKTARRFAYLFVNINVTSEPHEVSALWFLWYVKQCGGTTRIFSVTNGGQERKFVGGSGQVSERIMDLLGDQVKLNHPVTHVDQSSDNIIIETLNHEHYECKYVINAIPPTLTAKIHFRPELPAERNQLIQRLPMGAVIKCMMYYKEAFWKKKDYCGCMIIEDEDAPISITLDDTKPDGSLPAIMGFILARKADRLAKLHKEIRKKKICELYAKVLGSQEALHPVHYEEKNWCEEQYSGGCYTAYFPPGIMTQYGRVIRQPVGRIFFAGTETATKWSGYMEGAVEAGERAAREVLNGLGKVTEKDIWVQEPESKDVPAVEITHTFWERNLPSVSGLLKIIGFSTSVTALGFVLYKYKLLPRS
As to B2, the Km in data set [2] is 52 µM.
